US20210121565A1 (Eli Lilly, published 2021)

Assays:
[1] = target: T1, human monomeric (native or non-aggregate) tau (human, UniProt P10636 2-758); assay: SPR (Biacore 2000, 25 C), antibody captured on protein A, tau as analyte, steady state fit
T1 construct: No tag or expression host is stated; also called Monomeric Tau; monomeric tau
Method: (§1) Surface Plasmon Resonance (SPR) assay, measured with a BIACORE® 2000 instrument (primed with HBS-EP+running buffer (GE Healthcare, 10 mM Hepes pH7.4+150 mM NaCl+3 mM EDTA+0.05% surfactant P20) at 25° C.), is used to measure binding of an exemplified anti-Tau antibody (having both HCs of SEQ ID NO.2 and both LCs of SEQ ID NO.1) to both human monomeric (e.g., native or non-aggregate) tau and human tau aggregates (both having the amino acid sequence as set forth in SEQ ID NO.13).
(§2) Except as noted, all reagents and materials are from BIACORE® AB (Upsala, Sweden). A CMS chip containing immobilized protein A (generated using standard NHS-EDC amine coupling) on all four flow cells (FC) is used to employ a capture methodology. Antibody samples are prepared at 0.5 μg/mL by dilution into running buffer. […]
(§3) Data of binding to tau aggregate is processed using standard double-referencing and fit to a 1:1 binding model using Biacore 2000 Evaluation software, version 4.1, to determine the association rate (kₒₙ, M⁻¹s⁻¹ units), dissociation rate (koff, s⁻¹ units), and Rₘₐₓ (RU units). The equilibrium dissociation constant (KD) was calculated from the relationship KD=koff/kₒₙ, and is in molar units. Data of binding to monomeric tau cannot be determined accurately by SPR as described above due to rapid on- and off-rates. […]

[2] = target: T2, aggregate tau fibrils purified from AD brain homogenates (MC1-affinity purified) (human, UniProt P10636-8 2-441, limits assumed); assay: ELISA, purified AD tau fibrils coated on plate, anti-human IgG-HRP detection
T2 construct: Brain-derived material coated on ELISA plates at 0.7 ug/ml total tau; also called Purified AD Tau Fibrils; purified tau fibrils
Method: Enzyme-Linked Immunosorbant Assay (ELISA) is used to determine relative binding affinity of the exemplified anti-Tau antibody (having both HCs of SEQ ID NO.2 and both LCs of SEQ ID NO.1) to aggregate tau fibrils from AD brain homogenates. AD brain homogenates are prepared from approx. 80 g of cortex from brain of AD patients. Briefly, buffer (TBS/1 mM PMSF/1× Complete® protease inhibitor cocktail (Roche, p/n. 11 697 498 001) and phosphatase inhibitor (ThermoFischer, p/n. 78428)) is added to the AD brain tissue at about 10 ml/1 g (tissue). Tissue is homogenized using a handheld Kinematica Polytron at speed 6-7. Tissue is then further homogenized using Parr Bomb (Parr Instrument, p/n. 4653) at 1500 psi of nitrogen for 30 mins. Homogenate is spun at 28,000 g (J14 Beckman rotor) for 30 min at 4° C. Supernatant is collected, pooled and run over a 4 cm high guard column of Sepharose 400 Superflow to remove larger debris, then run over 25 ml MC1-Affigel 10 column at a flow rate of 50-60 ml per hour, in order to purify MC1-binding tau fibrils. To maximize the recovery of purification, supernatants are recycled through MC-1 column over 18-20 hours at 4° C. […] The concentration of tau within the tau fibrils purified from AD brain homogenate is measured by sandwich ELISA using DA-9 capture antibody and CP27 detection antibody. […]

[3] = target: T3, human tau aggregates (amino acid sequence of SEQ ID NO.13) (human, UniProt P10636 2-758); assay: SPR (Biacore 2000, 25 C), antibody captured on protein A, tau aggregate as analyte, 1:1 fit
T3 construct: also called fibril tau; tau fibril aggregate
Method: as §1, §2, §3

[4] = target: T3, human tau aggregates (amino acid …); assay: SPR (Biacore 2000, 25 C), antibody captured on protein A, tau aggregate as analyte, KD=koff/kon, not normalized for avidity
Method: as §1, §2, §3

T3 sequence (P10636 other isoform, or with tags, fused parts or gaps limits assumed): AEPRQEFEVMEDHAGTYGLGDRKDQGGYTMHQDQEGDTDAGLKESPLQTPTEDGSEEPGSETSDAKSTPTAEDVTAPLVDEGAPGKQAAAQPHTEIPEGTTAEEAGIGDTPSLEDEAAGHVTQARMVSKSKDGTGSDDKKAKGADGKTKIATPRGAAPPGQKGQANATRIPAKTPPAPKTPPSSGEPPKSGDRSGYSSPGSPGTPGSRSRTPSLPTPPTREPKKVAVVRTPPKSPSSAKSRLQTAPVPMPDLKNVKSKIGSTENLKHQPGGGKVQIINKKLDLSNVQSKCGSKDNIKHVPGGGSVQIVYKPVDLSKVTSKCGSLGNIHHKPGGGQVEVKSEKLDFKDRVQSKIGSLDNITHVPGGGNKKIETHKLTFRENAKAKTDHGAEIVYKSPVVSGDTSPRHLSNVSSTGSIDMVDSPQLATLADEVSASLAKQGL
T2 sequence (P10636 other isoform, or with tags, fused parts or gaps limits assumed): as above
T1 sequence (P10636 other isoform, or with tags, fused parts or gaps limits assumed): as above

- Kd [1]: 235 nM
- EC50 [2]: 6.8 pM
- koff [3]: < 1e-05 s⁻¹
- kon [3]: 45900 M⁻¹ s⁻¹
- Kd [4]: < 0.22 nM
B1: Exemplified anti-Tau antibody (having both HCs of SEQ ID NO.2 and both LCs of SEQ ID NO.1) (antibody, human IgG4 S228P, kappa, F234A L235A, V domains shown)
VH: EVQLVQSGAEVKKPGESLKISCKGSGYTFSNYWIEWVRQMPGKGLEWMGEILPGSDSIKYEKNFKGQVTISADKSISTAYLQWSSLKASDTAMYYCARRGNYVDDWGQGTLVTVSS
VL: EIVLTQSPGTLSLSPGERATLSCRSSQSLVHSNQNTYLHWYQQKPGQAPRLLIYKVDNRFSGIPDRFSGSGSGTDFTLTISRLEPEDFAVYYCSQSTLVPLTFGGGTKVEIKR
notes: It was expressed in CHO cells; also called Exemplified anti-Tau mAb; exemplified tau monoclonal antibody
